We go through 36 variants from article doi:10.1101/2021.08.20.457142.

Sequences and labels used below:
B1: MKK6 D-site peptide / p38-alpha (MAPK14) L195A, full length (parent complex)
chain 1: SQSKGKKRNPGLKIPKEAFEQP
chain 2: MSQERPTFYRQELNKTVWEVPERYQNLSPVGSGAYGSVCAAFDTKTGHRVAVKKLSRPFQSIIHAKRTYRELRLLKHMKHENVIGLLDVFTPARSLEEFNDVYLVTHLMGADLNNIVKCQKLTDDHVQFLIYQILRGLKYIHSADIIHRDLKPSNLAVNEDCELKILDFGLARHTDDEMTGYVATRWYRAPEIMANWMHYNQTVDIWSVGCIMAELLTGRTLFPGTDHIDQLKLILRLVGTPGAELLKKISSESARNYIQSLAQMPKMNFANVFIGANPLAVDLLEKMLVLDSDKRITAAQALAHAYFAQYHDPDDEPVAEPYDQSFESRDFLIDEWKSLTYDEVISFVPPPLDQEEMES

This test covers variants of B1.
For chain 1 SQSKAKKRNPGAKIPKEAFEQP, the screen value was -0.353 Z-score of the enrichment rate within one screen of 711 sequences.

As to chain 1 SQSKGKKRNPGLYIPKEAFEQP, the screen value was -0.0639 Z-score of the enrichment rate within one screen of 711 sequences.

As to chain 1 SQSKGKKRNPGLKIWKEAFEQP, the screen value was 0.627 Z-score of the enrichment rate within one screen of 711 sequences.

As to chain 1 SQSKGKKRNPGLKISKEAFEQP, the screen value was 2.36 Z-score of the enrichment rate within one screen of 711 sequences.

Turning to chain 1 SQSKGKKRNPGLKIMKEAFEQP, the screen value was 1.84 Z-score of the enrichment rate within one screen of 711 sequences.

chain 1 SQSKGKKRNPGLKRPKEAFEQP: the screen value was -1.31 Z-score of the enrichment rate within one screen of 711 sequences.

For chain 1 SQSKGKKRNPGLKYPKEAFEQP, the screen value is -1.19 Z-score of the enrichment rate within one screen of 711 sequences.

In the case of chain 1 SQSKGKKRNPGLKCPKEAFEQP, the screen value is -0.81 Z-score of the enrichment rate within one screen of 711 sequences.

Turning to chain 1 SQSKGKKRNAGAKIPKEAFEQP, the screen value is -0.884 Z-score of the enrichment rate within one screen of 711 sequences.

Turning to chain 1 SQSKGWKRNPGLKIPKEAFEQP, the screen value was 0.936 Z-score of the enrichment rate within one screen of 711 sequences.

Turning to chain 1 SQSKGQKRNPGLKIPKEAFEQP, the screen value was 0.371 Z-score of the enrichment rate within one screen of 711 sequences.

Consider chain 1 SQMKGKKRNPGLKIPKEAFEQP, for which the screen value was 2.21 Z-score of the enrichment rate within one screen of 711 sequences.

As for chain 1 SQHKGKKRNPGLKIPKEAFEQP, the screen value is 1.56 Z-score of the enrichment rate within one screen of 711 sequences.

Regarding chain 1 SQTKGKKRNPGLKIPKEAFEQP, the screen value was 1.74 Z-score of the enrichment rate within one screen of 711 sequences.

In the case of chain 1 SQSKYKKRNPGLKIPKEAFEQP, the screen value is 2 Z-score of the enrichment rate within one screen of 711 sequences.

Consider chain 1 SQSKEKKRNPGLKIPKEAFEQP, for which the screen value was 0.392 Z-score of the enrichment rate within one screen of 711 sequences.

As to chain 1 SQSKGKKWNPGLKIPKEAFEQP, the screen value was 0.178 Z-score of the enrichment rate within one screen of 711 sequences.

As for chain 1 SQSKGKKPNPGLKIPKEAFEQP, the screen value was -0.0227 Z-score of the enrichment rate within one screen of 711 sequences.

Take chain 1 SQSKGKKFNPGLKIPKEAFEQP: the screen value is 0.775 Z-score of the enrichment rate within one screen of 711 sequences.

Take chain 1 SQSKGKKRNPGLKIPSEAFEQP: the screen value is 0.134 Z-score of the enrichment rate within one screen of 711 sequences.

Take chain 1 SQSKGKKRNPGLKIPHEAFEQP: the screen value was 0.315 Z-score of the enrichment rate within one screen of 711 sequences.

As to chain 1 SQSKGKKRNPGLKIPFEAFEQP, the screen value was 0.506 Z-score of the enrichment rate within one screen of 711 sequences.

Regarding chain 1 SQSKGAKRAPGLKIPKEAFEQP, the screen value is -0.245 Z-score of the enrichment rate within one screen of 711 sequences.

For chain 1 SQSKGKAANPGLKIPKEAFEQP, the screen value is -0.694 Z-score of the enrichment rate within one screen of 711 sequences.

Regarding chain 1 SQSKGKKRNPELKIPKEAFEQP, the screen value was 0.286 Z-score of the enrichment rate within one screen of 711 sequences.

Consider chain 1 SQSKGKRRNPGLKIPKEAFEQP, for which the screen value is 2.22 Z-score of the enrichment rate within one screen of 711 sequences.

For chain 1 SQSKGKKRNPGAKIAKEAFEQP, the screen value was -0.373 Z-score of the enrichment rate within one screen of 711 sequences.

As for chain 1 SQSKGKKRMPGLKIPKEAFEQP, the screen value was 1.1 Z-score of the enrichment rate within one screen of 711 sequences.

For the variant chain 1 SQSKGKKRIPGLKIPKEAFEQP, the screen value is 0.56 Z-score of the enrichment rate within one screen of 711 sequences.

As to chain 1 SQSAGKKRNPGLKIAKEAFEQP, the screen value was 1.47 Z-score of the enrichment rate within one screen of 711 sequences.

As to chain 1 SQSKGKKRNKGLKIPKEAFEQP, the screen value was 0.591 Z-score of the enrichment rate within one screen of 711 sequences.

For the variant chain 1 SQAKGKKANPGLKIPKEAFEQP, the screen value was -0.296 Z-score of the enrichment rate within one screen of 711 sequences.

In the case of chain 1 SQAKAKKRNPGLKIPKEAFEQP, the screen value is 2.03 Z-score of the enrichment rate within one screen of 711 sequences.

In the case of chain 1 SQSKGKKRNPGAAIPKEAFEQP, the screen value was -1.08 Z-score of the enrichment rate within one screen of 711 sequences.

Consider chain 1 SQSKGKKRNPGQKIPKEAFEQP, for which the screen value was -1.19 Z-score of the enrichment rate within one screen of 711 sequences.

As for chain 1 SQSKGKKRNPGYKIPKEAFEQP, the screen value is -1.09 Z-score of the enrichment rate within one screen of 711 sequences.
